Experiment [1] has as its target Recombinant C4b β chain (pig). Description: SPR; Biacore 8K, single-cycle; C4bα and C4bβ covalently immobilised on CM5 chip (about 1500 RU); CR1-like fragments or mutant as mobile phase, 1.56 × 10^-2 to 4 μM; 25 °C; 10 mM HEPES pH 7.4, 150 mM NaCl, 0.05% Tween-20; apparent KD = kd/ka. For orientation: In SPR one partner is held on a chip, and binding of the other changes the refractive index at the surface.

Experiment [2] has as its target Recombinant C4b α chain (pig). The experiment is described as above.

pKd: −log10 of the molar value.

As for “118I mutant of CR1-like CCPs 1-3 (domain or fragment)”, the figures for the pKd in experiment [1] and in experiment [2] were 5.92 and 6.57, respectively.

Values taken from paper PMC12846707.
